Experimental findings from article PMC8616905 are described below.

Data set [1] concerns the target Ago2 (guide-loaded) (human) (UniProt Q9UKV8). Nature of the data set: EMSA.
For data set [2] the target is unchanged. Nature of the data set: koff measurement.

Like-named read-outs stand apart in the source and are kept apart here.

For orientation: Kd means a measure of binding affinity in units of concentration. Read a low Kd as a tighter complex.

Chain of Ago2 (guide-loaded) (human) (Q9UKV8 whole entry): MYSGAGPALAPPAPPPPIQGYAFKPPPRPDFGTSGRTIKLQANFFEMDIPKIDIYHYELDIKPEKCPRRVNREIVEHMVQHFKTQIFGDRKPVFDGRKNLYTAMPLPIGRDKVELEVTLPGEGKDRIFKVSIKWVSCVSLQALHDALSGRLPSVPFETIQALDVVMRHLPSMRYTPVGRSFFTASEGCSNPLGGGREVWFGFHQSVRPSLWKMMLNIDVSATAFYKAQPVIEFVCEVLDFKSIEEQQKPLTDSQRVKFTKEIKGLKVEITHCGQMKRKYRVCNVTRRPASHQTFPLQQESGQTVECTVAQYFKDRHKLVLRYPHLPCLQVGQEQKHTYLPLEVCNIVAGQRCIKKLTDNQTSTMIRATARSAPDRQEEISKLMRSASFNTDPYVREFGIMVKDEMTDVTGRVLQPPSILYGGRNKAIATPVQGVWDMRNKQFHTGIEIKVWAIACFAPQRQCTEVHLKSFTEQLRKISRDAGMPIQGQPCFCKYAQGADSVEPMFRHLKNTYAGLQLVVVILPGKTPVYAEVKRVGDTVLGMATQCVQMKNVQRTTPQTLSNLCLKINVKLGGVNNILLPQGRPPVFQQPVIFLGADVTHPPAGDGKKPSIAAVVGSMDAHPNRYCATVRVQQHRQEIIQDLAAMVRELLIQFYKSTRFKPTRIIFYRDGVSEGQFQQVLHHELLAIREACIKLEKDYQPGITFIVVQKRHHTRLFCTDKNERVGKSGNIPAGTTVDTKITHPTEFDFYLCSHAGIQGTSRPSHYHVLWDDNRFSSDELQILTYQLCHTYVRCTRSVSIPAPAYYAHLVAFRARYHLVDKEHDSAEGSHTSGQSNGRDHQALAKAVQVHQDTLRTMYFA

As for HCV 5' UTR deltaSL1 + miR-122 guide, the dissociation constant (Kd) in data set [1] was found to be 0.058 nM.
In data set [2], Site-1 WT + miR-122 guide had a binding signal (relative koff (reference)) of 1.
In turn, “Site-1 deltaSL1 (A4 bridge) + miR-122 guide” registered a koff fold change (fold slower koff than Site-1 WT) in data set [2] of 6.
The substance Site-1 t9 abasic + miR-122 guide returned a koff fold change (fold slower koff than Site-1 WT) in data set [2] (abasic nucleotide at t9 (G21)) of 3.
